Data as given in the supplement of paper PMC9170038.

Tested on: MS2 coat protein
Assay: apparent KD of MS2 coat protein; designed switch direction (-1 OFF switch, 1 ON switch): -1; higher = weaker reporter binding
How it was run: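 Each step of the titration lasted 0.8–1.5 h at the lowest concentration and 10–20 min at the highest. The protein, SNAP-549-labelled MS2 coat protein, went from 0.7 or 1.5 nM doubling to 3 µM over RNA switches transcribed on Illumina chips by stalled E. coli RNA polymerase. Normalised cluster fluorescence was curve-fitted, and the per-design median over clusters is given as apparent KD.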

[1] = Eterna round: R95, input ligand: FMN 200 uM
[2] = Eterna round: R95, input ligand: microRNA oligo, concentration not stated
[3] = Eterna round: R95, input ligand: none
[4] = input ligand: microRNA oligo, concentration not stated

## AGUUGGCGAGGAUAUACAUGAGGAUCACCCAUGUGAGAGAAAAAAGUGAGGAAGAAAAGUAGAAGGCGCUGACG [salish99_ex3_r3_040] (puzzle: Exclusion 3)
[1]
  apparent KD of MS2 coat protein: 61.2 nM
[2]
  apparent KD of MS2 coat protein: 38.5 nM
[3]
  apparent KD of MS2 coat protein: 40.1 nM

## UACAUGAGGAUCACCCAUGUUUUGUCGUGUUUGGUACCCGUUUAGGAUAUCGUGUUAUUGGACCGCGAGAAGGAGAGUAUCUUU [Excl-NG3-LRO07] (Eterna round: R96, puzzle: Exclusion NG 3)
Input ligand: FMN 200 uM
  apparent KD of MS2 coat protein: 31.8 nM
[4]
  apparent KD of MS2 coat protein: 25.3 nM
Input ligand: none
  apparent KD of MS2 coat protein: 33.3 nM

## UAUUAGUAAGGAUAUGAGACGUAGGACGCAAGUCCUACGUCUCAGAAGGUACAUGAGGAUCACCCAUGUCUAUU [Mod of Fisker 10 - Jieux - Exclusion 4] (Eterna round: R97, puzzle: Exclusion 4)
Input ligand: FMN 200 uM
  apparent KD of MS2 coat protein: 21.2 nM
Input ligand: none
  apparent KD of MS2 coat protein: 22.2 nM

## GCACAGGCAGGAUAUACAUGAGGAUCACCCAUGUGAUCCCUUAGGUACAAAAGUACAAGUAGAAGGGCCUGUGC [Omei Ex3 Model Bachelor's Dilema v45] (Eterna round: R97, puzzle: Exclusion 3)
Input ligand: FMN 200 uM
  apparent KD of MS2 coat protein: 146 nM
Input ligand: none
  apparent KD of MS2 coat protein: 1460 nM

## AAUGGUAAAGUCAGGAUAUACGUAAAUCGUACUAGGUAGAAGGGACAUGAGGAUCACCCAUGUAUGAUAGUAAA [Ex4 #31] (Eterna round: R97, puzzle: Brourd's mod of Exclusion 4)
Input ligand: FMN 200 uM
  apparent KD of MS2 coat protein: 66 nM
Input ligand: none
  apparent KD of MS2 coat protein: 76 nM

## CCUUAGUCACAGGAUAUGCUCAUCUAAUGAUGAGCAGAAGGGUGAACAUGAGGAUCACCCAUGUUUACCAGGGU [Omei Ex6 E4] (Eterna round: R97, puzzle: Exclusion 6)
Input ligand: FMN 200 uM
  apparent KD of MS2 coat protein: 247 nM
Input ligand: none
  apparent KD of MS2 coat protein: 37.1 nM

## GAAAAUUGGGCAGGAUAUCUAAUGAAAGAAACCGGAGAAGGGCCGGUGGCAAUUGCAGACAUGAGGAUCACCCAUGUAGUUGCA [Eternabot solution 42] (Eterna round: R96, puzzle: Exclusion NG 1)
Input ligand: FMN 200 uM
  apparent KD of MS2 coat protein: 13.5 nM
[4]
  apparent KD of MS2 coat protein: 15.2 nM
Input ligand: none
  apparent KD of MS2 coat protein: 14.9 nM

## UAUACACAUGAGGAUCACCCAUGUGAGGAUAUGUACAACAACAAGACGGAAAAAAAAUACAGAAGGCACAAAUA [JR_Exclusion1_Sub028] (puzzle: Exclusion 1)
[1]
  apparent KD of MS2 coat protein: 22.7 nM
[2]
  apparent KD of MS2 coat protein: 25.7 nM
[3]
  apparent KD of MS2 coat protein: 32.4 nM

## GGAGAGGUAGGAUAUGGAGGUUAAAACAUGAGGAUCACCCAUGUUAAACCUCAUGACCGACUAGAAGGACCAGUCC [AK-MS2ROC-r4-exclusion5-8] (Eterna round: R97, puzzle: Exclusion 5)
Input ligand: FMN 200 uM
  apparent KD of MS2 coat protein: 15 nM
Input ligand: none
  apparent KD of MS2 coat protein: 11.1 nM

## CCCAGUUAUCAAGGAUAUUGUACAUGAGGAUCACCCAUGUAAUAAAUGAGGAUUUCGGGUGUCUACAAGAAGGUGAGGAUAGGC [Ostracism 15 - Jieux - Exclusion NG 2] (Eterna round: R96, puzzle: Exclusion NG 2)
Input ligand: FMN 200 uM
  apparent KD of MS2 coat protein: 26.6 nM
[4]
  apparent KD of MS2 coat protein: 22.4 nM
Input ligand: none
  apparent KD of MS2 coat protein: 46.4 nM

## GGAUAAAACUGAGGAUAUGCGUAUCGCUAGCGAGCAGAAGGCAGACAUGAGGAUCACCCAUGUGAGUUCUCGAUAAGAAACACG [Prohibition 59 - Jieux - Exclusion NG 1] (Eterna round: R96, puzzle: Exclusion NG 1)
Input ligand: FMN 200 uM
  apparent KD of MS2 coat protein: 145 nM
[4]
  apparent KD of MS2 coat protein: 54.8 nM
Input ligand: none
  apparent KD of MS2 coat protein: 57.7 nM

## AUUAUAUAGAUAGGAUAUUGAUUAUUAUUUUAACAUGAGGAUCACCCAUGUAGCCUUAUGUAUAACAAGAAGGAUCAUUUAUUA [Title] (Eterna round: R96, puzzle: Exclusion NG 2)
[4]
  apparent KD of MS2 coat protein: 137 nM

## UUUAAUUUUUUUUUUUUACAAGCUUUUUGCUCGUCUUAUACAUGAGGAUCACCCAUGUGAGUGGGAGGUAAAUUAUC [JMF 77] (puzzle: Sensor v3, turn-off variant 2)
[1]
  apparent KD of MS2 coat protein: 57.7 nM
[2]
  apparent KD of MS2 coat protein: 276 nM
[3]
  apparent KD of MS2 coat protein: 70 nM
